Assay: soluble fraction after stress (log2 fold change); higher = more stays soluble; pooled small domains, quantitative proteomics
Details: stress: pH 4
In short: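 Small protein domains from pooled custom libraries were exposed to pH 4, then quantified with high-throughput quantitative proteomics. The fold change in how much of each domain remains soluble is read as aggregation propensity. It is given as log2, with higher values meaning more stayed soluble.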

Sequence | soluble fraction (log2)
HMPELFLFNPDTASAATFQALGFSARQAGVLIHFREALGGRFGSVEQFSKSYVVDSATLERLRPYMVF | -0.029
HMEEILLSVKADGTYWVDQKEVTLDEVGALLDKEPDRLLNIFMDEKVPVRHFINVVDIAKVKREGRFII | -1.74
HMAGSGLPVPRFVSLADDRVNARAGPGFRFPINWVYLRKGFPVEVVDEFGPWRRIRDIDGVAAWIHLSMLS | -0.848
HMEDAWMKKELWDAIATLPKKQRLVMTMRLTNNHSYKEIAAILGISENSAKVSYHHAVERLKEKFK | 0.0668
HMSAIKSVTTQLDNTKLRTGPDVSYQYTQSYPANTKLTYINKSGTWYQVKDADGNTGYVASWVVTPSE | 0.387
HMVFSKEELLFNSDSLLSLYPNDNKLLETILSEKIDHAVKNNDMSMYKEILVIDPKNPLANYHLLM | 0.17
HMKYKTKRDMILALMKKEILSGELKPRTRLLISEVASRYEVSEIPVREAFQVLIQEDLVRSTGAGFEVT | 0.233
HMEALDPLTAREQEVLEMILSGKSNREIAAELHITENTVKTHAQSIYSKYDVRGRAKLISLLLKGEA | -0.192
HMPVFYATNRQKTTIHNLKRKKGLDDDAYRATIYSFTHGRTDSSKYMYKYEAAELIQKWLDPE | -0.157
HMKMVSTPTGTRISLTQVKEFISNASFDDMKEILLEVLAWFKAHNLGNPFNYNRAFEFIVAH | -0.302
HMSPTSSRAAQARIRKMIESESPLKPISDSQLAARLGEEGISIARRTVAKYREQMNILPASQRRGV | -0.0284
HMGDPMAIMQLSSNTTPEYWEAYQKYHIQEYEQSNFIRYVNGISVLDDDFVDKVLITIDQHGRIFSELKS | -2.5
HMAGHKVDFSELPARSQAFIGKNFPTEMVKNVEMERKDAKDHYTVLLSNGTKVMFDGTSGELTGV | 0.0825
HMTGSLRVTSSPSGAEIYVDEIYRGYTPLTIGSLSTGRHEVRLHLSGYQDYTRTVEIESGSQSSFSVTLT | 0.0547
HMGNEEEEAIREAEEAIERVLEYGEPQELNPQNGFIRRLQHQLAEKSHLSSESVGVEPYRRVRISK | -0.00812
HMIYGNGVTDLKDLANGATIIIPADDSNETRALFLLQQEGLIKLPDDADAAKGVSTLDIVDGGGWVTSM | -0.381
HMSIASASVKEKIRDIVSSEPPQKPFSDAKIAEILAEDGIAIARRTVAKYREEIGIPTKSLRKR | 0.292
HMDNITIYSSNGKIYVNAIGGEKIELFNITGQKVAEKVAVSGINVLDAVYDITLVKVGSKVVKVV | -1.41
HMNKEIEDYVATYSSMKAKEAAAIFDTMTSDLDLVAKILEAMSADDRAKILEQMNEENAARLTKMMD | -0.654
HMLFSDSDLKSLLDKDISYVIEMYKAASKEQKRIISDMVAQKVMEKKYIDANILIQLGELTGINYMDL | -1.32
HMSAEKDGEWLTLTEAAKHLQVSPHVIRRLIQTGALPAEQVMRGAPHQIRAADLDTDRVKTMIAR | 0.228
HMEDFDLSDTERKIIAQIGHGYSNKEIAQKLGFSEGTIRNYLSVILDKLDLRDRTQLAIWYLSR | -0.229
HMDKEVMEAVLRILYDDDFNPDQRDAILYFFVQELDQRTISEITGAKIGTVKKRIHDGLKKLRQKLAKEDL | -1.03
HMDVLKMKVEDLNIGSRTVNSLTAAKIKTVAGLIKKSKESLLELDGMGNKGVEEIILALKKLGLEL | 0.345
HMEDIVDLVVEPEAAGRRLDAWLASRIERLSRSRIKALIESGHVAIGGATIVEAKKPVNSGDVVQLSVPEG | -0.121

Sequence | soluble fraction (log2)
HMSTDDILSSITALRLASVQFQLGQFDPALDSLKLVKEQAWSGAKNILAGDIQLAKGDKEAAKASYQQAQQ | -0.542
HMDKIEVVEVDMSKPYEDMTVTELQNVILDKLASNGPVTNQMKKDVSENIYHDSLVNWAKSF | -0.541
HMHLNVYRDEDEAMLAFKDHLIGTHQPIRVRVEKALPDGTMGHKIVDTTIGRIVFNHNIPQD | 0.0727
HMNVDSLPGEKAVVIKTIDNLRGTGQAVVNGLEWSAKSKDETIIDEGKVVRIVAVEGVKLVVEEE | -0.252
HMEDNLVTYPNPTSDYIYVSKKVDLTVVNMLGDILIQKQNINVLDVTELTPGMYTIVIRYNNVTTNKRIIK | -0.335
HMSLDLNENEKTIFDIIQNKKTIRLSELKIEAGLSNKGWDKAMKSLTKQGLAKVVKTEDQLTVKLL | 0.0483
HMKGALQIAIEEGFNWNLDKKYWNIVQSTVIAKRLGLKTTSGLKEAIEGMGGEYKRTKKARGYLVPTFKD | 0.354
HMKDSKSALQEYALERKMGLPVYEVVDRSGPDHAPQFVIAVSLGEWRLEAKGASKRQAEQQAASLMLEEI | -0.0445
HMMTDAEKTFIFFSHLSSVEDHIAYGDKQFYMSLFWQHENKRELSSSQLYHLERLYNKYSMEEIEKKEEFS | -1.07
HMERVIYLLNGREVPAAEIRAAEPEALTVDRFYSSENLPAEYRDRNPELVVAFTAEEPLRHY | -0.559
HMTVKKLIINEDNSGRRIDNYLLSIFNSVPRSKIYNIIRKGEVRVNSSRIKPSYRLEEGDQVRIPPNLDYT | -0.0871
HMKFGETLIDLRKRNGLTQEELAAKLYVTRQAVSRWERGEVTPGIDMLKLIANVLNEPVAHLLDW | -0.435
HMFERINLIGVNGTTKKRSALVRLLDGEIVKIGVGDSLNGGQVVDISPATLTYLKSGKSIMLTLPK | 0.22
HMTDEEKENLREKMLEAGFPLLKQYGMTHTSVAKITQAAGIAVGTFYSFWKNKEAYMADLIGYHRR | 0.105
HMSEILQLINKIDKKLEKGYTFANISRNHYEKIYKEEILNLYKTSKLKGEAEDSIKEVLESLLGDLRKP | 0.368
HMTNVETLVRMRLRSIRTTLGYSLDEIAERSNLSASTVSRIETGKRALSIDVLVPLAAALQVSVDDLLRAE | -1.31
HMGEDLTIDQLAAEVDMTVRNIRAHQARGLLPPPTIKGRIGYYGPLHRRRLQQIRAMQEEGLNLAAIAKVV | -0.533
HMSPDALSNLPIGSEIKFTLWDGTEKRLVKHPAAYQFSRPFWMNLNEYTYVPVNRIPKNYEVIRL | -0.0954
HMSSKSLAALSPQEYRLLPLVAEGKTNKEIASALALSDKTVKNYLANIFSKLGITRRTQAATLYARAL | 0.252
HMGKLQFREKLNGILELGKEKHRVLTMEDVEKYFEEDALSEEQMELVYDYLLSQKIAVTGYVKK | 0.414
HMTYYEGYYRKNQKGFGFVIVDGRDEDIYIDAKNMNGALNNDLVVVEELKGQNGKKTEGRVVKVLKKE | -0.284
HMLMKKTITHEIELLEFLKQIFPQSSTNKLRKMLSNGRIKINSEIVHKAKYKLQENDTFELLDNPT | -0.0208
HMYSDIERAMTNAPEQFANKQAVLDFLNKNRIKKSEVDDYRIASLLKLYDDASPISKTEIISQVRT | -0.0708
HMRNPLYAQVADYVMQQIAAGTYRPHQAIPTEWQLAKKLEVSQGTVRKGLDELVFKQILYRQQGVGTFVAD | 0.0353
HMDPTVEENKLNPRDLLIIQRVKEGRTNKEIAEELNVAEITVKKQLSSLYQRYKVHNRNQLLLALD | 0.245

Sequence | soluble fraction (log2)
HMSFISRMVVAVEDIALSTRPNSTPSGDKYVSKGTVLLMEKRENDWVEVRQPSSPLSGWAPKTSLLSV | -0.426
HMKQNSDDGEIRKIIIEILDNNLDNVNKYKSGRTNVLDFFVGQVMKQTRGQANPELTRSILTEELSN | 0.00746
HMVTTDPIADMLTRIRNASSQKHKSVDVPASKEKLAIAQILFEEGYIKSFEEIKEENNQGVIRITLKYTEK | -0.0598
HMVKLSATVKELLDFVIAKKTVTSSNVSKHFDISAQNASGRLKKLHATGLVLGQKEVAESGGLEFVYRS | -0.208
HMDTLTRAMVWTIIARAEGVDTTGGATWYAKAQEWVTAKGISDGENPNAAITRQELVTMLYRLAGEPAV | -0.681
HMAKRMRNPNGYGSIVKLSGNRRNPYMVKVNTHMDERYYPVYDILGYYPTWADASIALAKYNDDPYNVS | 0.0269
HMEHQLLHMEKTIFEEIADDYPQLNHTKIRNVLAAFLFTNDDVFKRIADLSGGERGRVSLAKLMLSDA | -0.816
HMDKMIFFKNKENNDDNQLVKIGALLIHAAKIDEDFSQEEENIIKQTLINFGAGNKNINEIIEKAKKME | 0.33
HMIPDPEKVMFDGGIRLLTQAGITEGKARSILGKWKRDHETERIIAALGAAQREGAIEPVSFIERVLRN | -0.475
HMIDLPDIDIDFAKRTGVLEHITHTPARLETGKQHNTGVYFTDIPRGVDGLATMDHKRAEQLGYFKLDML | -0.172
HMGQHSAELKLHPQDLGQVTISMKVEDNQAQLQMVSGHGHVRAALEAALPQLRSQLADSGIQLTQSSIS | -0.223
HMPSTVRVPDVAETSLSEAKKTIEESGLEVGAIHKVNNDTVKKNHVIKTSPTIGSAKKEGSAIDIYVSKG | 0.201
HMSAAMTESVLDGIPGLGATRKAALLAHFGSVRKLRAATSEQVREVPGIGPRLAETILATLHEP | 0.0277
HMEELNFYPNPAYKYINLDYVGLKEIYTVLGKKLLETYDTRINISNLNSGIYLIKFKNQALRFVK | -0.32
HMELNEMEAWSLVSKALRNGTYGAVEEFSRLPPTVQEAVGNPDNLRNWATSDYKAIETVIQSNFIKTY | -0.429
HMANKTISMTTLKLVIQQLSKGISRQSISAQYHISRNTIKKYEKRIKAMDMKIEDILKLSDEEISNLLQ | -0.273
HMKNNNIIFSEFLKEVENGRVVEVRIQGNNIQGIMSNGKEFTTYSPNYPNLIEKLTETGVSISAAPL | -0.516
HMKIATIELVKEAVKSKLGKFTKRDIMELVPSVGKTTIENMLKQLIGEGYIERHGKGRATFYVK | 0.158
HMDINVDILPLLKTMTDTLRKVIELDIPFLKDARVQRVNSLDELLLRADITTAEKFRKVFEAYQIEADFGK | -1.05
HMATGIKAVDNVFGWMNLEQVAKTVGLDIPSVLRASGLPEDTPVDISIKKIPGVDDEELKDSLRQYIEKS | -0.237
HMDGDFGMNLDWQPSEHFPTLARQAGIPADHITAEAIAEFRSYWIGQGKAMTQYQWDHKLLTNLKATKTR | 0.106
HMQISDEAALLAIVDRVIADNQGPLANYLGGKQSLLGWFVGQVMRATRGQAIPAVVNRLVGERLAAQREE | -0.278
HMSISSIDFENLKSDELSDAQITQIYRQAQEQGLSIDELSSLAIARGMSPTEVAKLRSRFNSIP | 0.00293
HMKIDNPEYQKIMDMIPYFFQTRNYDEAIEALSYVIEQEPSFSEAYNKRATFYFMMGDFENSMKDIESTLA | -0.75
HMDTVEFPVQVNGKVRGKITVAADAGKDAIETAALADEKVLAFLDGATPKKVIVVPGKLVNLVVQPG | ≥ 0.43

From the domain aggregation screens of Martell et al. (2025)
